Laboratory results: patent publication US11499162B2, “Plants having increased tolerance to herbicides” (BASF SE, priority 2016, dated 2022)
Changes are numbered by the printed parent chain. Names and notes keep the numbering of the source.

B1: Y85LL92AY93V: mutated TriA variant of SEQ ID NO: 2 (protein)
chain: MQTLSIQHGTLVTMDQYRRVLGDSWVHVQDGRIVALGVHAESVPPPADRVIDARGKVVLPGFINAHTHVNQILLRGGPSHGRQLLDWLFNVAVPGQKAMRPEDVAVAVRLYCAEAVRSGITTINDNADSAIYPGNIEAAMAVYGEVGVRVVYARMFFDRMDGRIQGYVDALKARSPQVELCSIMEETAVAKDRITALSDQYHGTAGGRISVWPAPAITPAVTVEGMRWAQAFARDRAVMWTLHMAESDHDERLHWMSPAEYMECYGLLDERLQVAHCVYFDRKDVRLLHRHNVKVASQVVSNAYLGSGVAPVPEMVERGMAVGIGTDDGNCNDSVNMIGDMKFMAHIHRAVHRDADVLTPEKILEMATIDGARSLGMDHEIGSIETGKRADLILLDLRHPQTTPHHHLAATIVFQAYGNEVDTVLIDGNVVMENRRLSFLPPERELAFLEEAQSRATAILQRANMVANPAWRSL
modifications: Pseudomonas
B2: L92AY93V: mutated TriA variant of SEQ ID NO: 2 (protein)
chain: B1 chain with L85Y
modifications: Pseudomonas
B3: Y85LL88AF89AL92AY93LQ96TD128GM155VF157L: mutated TriA variant of SEQ ID NO: 2 (protein)
chain: B1 chain with L88A, F89A, V93L, Q96T, D128G, M155V, F157L
modifications: Pseudomonas
B4: N70VQ71T: mutated TriA variant of SEQ ID NO: 2 (protein)
chain: B1 chain with N70V, Q71T, L85Y, A92L, V93Y
modifications: Pseudomonas
B5: L92AY93VM155TF157L: mutated TriA variant of SEQ ID NO: 2 (protein)
chain: B1 chain with L85Y, M155T, F157L
modifications: Pseudomonas
B6: Q71NL92AY93LQ96TD128G: mutated TriA variant of SEQ ID NO: 2 (protein)
chain: B1 chain with Q71N, L85Y, V93L, Q96T, D128G
modifications: Pseudomonas
B7: N70TQ71V: mutated TriA variant of SEQ ID NO: 2 (protein)
chain: B1 chain with N70T, Q71V, L85Y, A92L, V93Y
modifications: Pseudomonas
B8: L88AL92AY93L: mutated TriA variant of SEQ ID NO: 2 (protein)
chain: B1 chain with L85Y, L88A, V93L
modifications: Pseudomonas
B9: Y85LL88AL92AY93VQ96TD128G: mutated TriA variant of SEQ ID NO: 2 (protein)
chain: B1 chain with L88A, Q96T, D128G
modifications: Pseudomonas
B10: L88AL92AY93V: mutated TriA variant of SEQ ID NO: 2 (protein)
chain: B1 chain with L85Y, L88A
modifications: Pseudomonas
B11: W87AL92AY93LF157L: mutated TriA variant of SEQ ID NO: 2 (protein)
chain: B1 chain with L85Y, W87A, V93L, F157L
modifications: Pseudomonas
B12: W87FL92AY93LF157L: mutated TriA variant of SEQ ID NO: 2 (protein)
chain: B1 chain with L85Y, W87F, V93L, F157L
modifications: Pseudomonas
B13: L92AY93LQ96TD128G: mutated TriA variant of SEQ ID NO: 2 (protein)
chain: B1 chain with L85Y, V93L, Q96T, D128G
modifications: Pseudomonas
B14: Y85LL92AY93LD250S: mutated TriA variant of SEQ ID NO: 2 (protein)
chain: B1 chain with V93L, D250S
modifications: Pseudomonas
B15: L92AY93I: mutated TriA variant of SEQ ID NO: 2 (protein)
chain: B1 chain with L85Y, V93I
modifications: Pseudomonas
B16: W87HL92AY93LF157L: mutated TriA variant of SEQ ID NO: 2 (protein)
chain: B1 chain with L85Y, W87H, V93L, F157L
modifications: Pseudomonas
B17: L92AY93LD250S: mutated TriA variant of SEQ ID NO: 2 (protein)
chain: B1 chain with L85Y, V93L, D250S
modifications: Pseudomonas
B18: L92AY93LM155TF157L: mutated TriA variant of SEQ ID NO: 2 (protein)
chain: B1 chain with L85Y, V93L, M155T, F157L
modifications: Pseudomonas
B19: M155L: mutated TriA variant of SEQ ID NO: 2 (protein)
chain: B1 chain with L85Y, A92L, V93Y, M155L
modifications: Pseudomonas
B20: Y85LL88AL92AY93V: mutated TriA variant of SEQ ID NO: 2 (protein)
chain: B1 chain with L88A
modifications: Pseudomonas
B21: Y85LL92AY93LD128AD250S: mutated TriA variant of SEQ ID NO: 2 (protein)
chain: B1 chain with V93L, D128A, D250S
modifications: Pseudomonas
B22: L88AL92AY93LF157L: mutated TriA variant of SEQ ID NO: 2 (protein)
chain: B1 chain with L85Y, L88A, V93L, F157L
modifications: Pseudomonas
B23: L92AY93LF157L: mutated TriA variant of SEQ ID NO: 2 (protein)
chain: B1 chain with L85Y, V93L, F157L
modifications: Pseudomonas
B24: Y85LF89AL92AY93L: mutated TriA variant of SEQ ID NO: 2 (protein)
chain: B1 chain with F89A, V93L
modifications: Pseudomonas
B25: Y85LL88AF89AL92AY93LQ96TD128G: mutated TriA variant of SEQ ID NO: 2 (protein)
chain: B1 chain with L88A, F89A, V93L, Q96T, D128G
modifications: Pseudomonas
B26: Y85LL88AL92AY93L: mutated TriA variant of SEQ ID NO: 2 (protein)
chain: B1 chain with L88A, V93L
modifications: Pseudomonas
B27: Y85LL88AL92AY93LQ96TD128G: mutated TriA variant of SEQ ID NO: 2 (protein)
chain: B1 chain with L88A, V93L, Q96T, D128G
modifications: Pseudomonas
B28: Y85LL88AF89AL92AY93VQ96TD128G: mutated TriA variant of SEQ ID NO: 2 (protein)
chain: B1 chain with L88A, F89A, Q96T, D128G
modifications: Pseudomonas

assay type: biochemical; details: pH 7.2
Outline: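 % degradation measured against empty-vector control by UPLC-HR-MS, with product identity confirmed by exact mass and MS-MS. Conditions: 25 mM sodium phosphate pH 7.2, 30 °C, substrates at 1–10 nM. Enzyme source: TriA-expressing E. coli resting cells incubated with azines, melamine or atrazine.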

Molecule	Degradation in % of 6-cyclopentyl-N4-(2,3,4,5,6-pentafluorophenyl)-1,3,5-triazine-2,4-diamine	Degradation in % of Melamine
B1	24%	0%
B2	58%	0%
B3	13%	1%
B4	0%	0%
B5	99%	0%
B6	85%	0%
B7	3%	0%
B8	35%	0%
B9	14%	0%
B10	25%	0%
B11	12%	3%
B12	99%	1%
B13	94%	0%
B14	36%	0%
B15	75%	0%
B16	18%	0%
B17	99%	0%
B18	99%	41%
B19	0%	4%
B20	13%	0%
B21	9%	0%
B22	99%	1%
B23	97%	43%
B24	15%	0%
B25	9%	0%
B26	13%	0%
B27	12%	0%
B28	13%	0%
